According to the RNAGym collection of RNA variant scans (doi:10.7554/elife.90254):

B1: OR4K15 (parent)
chain: GUUAACGGUCAUAGGCCAUGGAAACUAGGAGCACCAUUUCGCUGCCAGUGAAGAAAUGAACAAAGAAAAUCUGGGCCAGGCAGGCAUCAAAAGAAAUAGUCUUGCGCUCAACCAGAAAGUCUGUAAUCAUUUUAAGGGUA

Variants of: B1
Experiment: self-cleavage, relative activity (ratio to wild type); higher = more cleavage; in vitro, sequencing; the parent is a self-cleaving ribozyme

In order of rising self-cleavage:
1. GUUAACGGUCAUAGGCCAUGGAAACUAGGAGCACCAUUUCGCUGCCGGUGAAGAAAUGAACAAAGAAAAUCUGGGCCAGGCAGGCAUCAAAAGAAAUAGUCUUGCACUCAACCAGAAAGUCUGUAAUCAUUUUAAGGGUA [A47G G106A]  0
2. GUUAACGGUCAUAGGCCAUGGAAACUAGGAGCACCAUUUCGCUGCCGGUGAAGAAAUGAACAAAGAAAAUCUGGGCCAGGCAGGCAUCAAAAGAAAUAGUCUUACGCUCAACCAGAAAGUCUGUAAUCAUUUUAAGGGUA [A47G G104A]  0.05
3. GUUAACGGUCAUAGGCCAUGGAAACUAGGAGCACCAUUUCGCUGCCGGUGAAGAAAUGAACAAAGAAAAUCUGGGCCAGGCAGGCAUCAAAAGAAAUAGUCUUGCGCUCCACCAGAAAGUCUGUAAUCAUUUUAAGGGUA [A47G A110C]  0.1
4. GUUAACGGUCAUAGGCCAUGGAAACUAGGAGCACCAUUUCGCUGCCGGUGAAGAAAUGAACAAAGAAAAUCUGGGCCAGGCAGGCAUCAAAAGAAAUAGUCUUGCGCUCGACCAGAAAGUCUGUAAUCAUUUUAAGGGUA [A47G A110G]  0.1
5. GUUAACGGUCAUAGGCCAUGGAAACUAGGAGCACCAUUUCGCUGCCGGUGAAGAAAUGAACAAAGAAAAUCUGGGCCAGGCAGGCAUCAAAAGAAAUAGUCUUGCGCUCAACCUGAAAGUCUGUAAUCAUUUUAAGGGUA [A47G A114U]  0.11
6. GUUAACGGUCAUAGGCCAUGGAAACUAGGAGCACCAUUUCGCUGCCGGUGAAGAAAUGAACAAAGAAAAUCUGGGCCAGGCAGGCAUCAAAAGAAAUAGUCUUGCGCUCAUCCAGAAAGUCUGUAAUCAUUUUAAGGGUA [A47G A111U]  0.12
7. GUUAACGGUCAUAGGCCAUGGAAACUAGGAGCACCAUUUCGCUGCCGGUGAAGAAAUGAACAAAGAAAAUCUGGUCCAGGCAGGCAUCAAAAGAAAUAGUCUUGCGCUCAACCAGAAAGUCUGUAAUCAUUUUAAGGGUA [A47G G75U]  0.16
8. GUUAACGGUCAUAGGCCAUGGAAACUAGGAGCACCAUUUCGCUGCCGGUGAAGAUAUGAACAAAGAAAAUCUGGGCCAGGCAGGCAUCAAAAGAAAUAGUCUUGCGCUCAACCAGAAAGUCUGUAAUCAUUUUAAGGGUA [A47G A55U]  0.19
9. GUUAACGGUCAUAGGCCAUGGAAACUAGGAGCACCAUUUCGCUGCCGGUGAAGAAAUGAACAAAGAAAAUCUGGGCCAGGCAGCCAUCAAAAGAAAUAGUCUUGCGCUCAACCAGAAAGUCUGUAAUCAUUUUAAGGGUA [A47G G84C]  0.24
10. GUUAACGGUCAUAGGCCAUGGAAACUAGGAGCACCAUUUCGCUGCCGGUGAAGAAAUGAACAAAGAAAAUCUGGGCCAGGUAGGCAUCAAAAGAAAUAGUCUUGCGCUCAACCAGAAAGUCUGUAAUCAUUUUAAGGGUA [A47G C81U]  0.25
11. GUUAACGGUCAUAGGCCAUGGAAACUAGGAGCACCAUUUCGCUGCCGGUGAAGAAAUGAACAAAGAAAAUCUGGGCCAGGCAGGCAUCAAAAGAAAUAAUCUUGCGCUCAACCAGAAAGUCUGUAAUCAUUUUAAGGGUA [A47G G99A]  0.4
12. GUUAACGGUCAUAGGCCAUGGAAACUAGGAGCACCAUUUCGCUGCCGGUGAAGAAAUGAACAAAGAAAAUCUGGGCCAGGCAGGCAUCAAACGAAAUAGUCUUGCGCUCAACCAGAAAGUCUGUAAUCAUUUUAAGGGUA [A47G A92C]  0.42
13. GUUAACGGUCAUAGGCCAUGGAAACUAGGAGCACCAUUUCGCUGCCGGUGAAGAAAUGAACAGAGAAAAUCUGGGCCAGGCAGGCAUCAAAAGAAAUAGUCUUGCGCUCAACCAGAAAGUCUGUAAUCAUUUUAAGGGUA [A47G A63G]  0.44
14. GUUAACGGUCAUAGGCCAUGGAAACUAGGAGCACCAUUUCGCUGCCGGUGAAGAAAUGAACAAAGAAAAUCUGGGCCAGGCAGGCAUCAAAAGAAAUAUUCUUGCGCUCAACCAGAAAGUCUGUAAUCAUUUUAAGGGUA [A47G G99U]  0.51
15. GUUAACGGUCAUAGGCCAUGGAAACUAGGAGCACCAUUUCGCUGCCGGUGAAGAAAUGAACAAAGAAAAUCUGGGCCAGGCAGGCAUCAGAAGAAAUAGUCUUGCGCUCAACCAGAAAGUCUGUAAUCAUUUUAAGGGUA [A47G A90G]  0.56
16. GUUAACGGUCAUAGGCCAUGGAAACUAGGAGCACCAUUUCGCUGCCGGUGAAGAGAUGAACAAAGAAAAUCUGGGCCAGGCAGGCAUCAAAAGAAAUAGUCUUGCGCUCAACCAGAAAGUCUGUAAUCAUUUUAAGGGUA [A47G A55G]  0.59
17. GUUAACGGUCAUAGGCCAUGGAAACUAGGAGCACCAUUUCGCUGCCGGUGAAGAAAUGAACAAAGAAAAUCUGGGCCAGGCAGGCAUCAAAAGAAAUAGUCUUGCGCUCAACCAGAAUGUCUGUAAUCAUUUUAAGGGUA [A47G A118U]  0.67
18. GUUAACGGUCAUAGGCCAUGGAAACUAGGAGCACCAUUUCGCUGCCGGUGAAGAAACGAACAAAGAAAAUCUGGGCCAGGCAGGCAUCAAAAGAAAUAGUCUUGCGCUCAACCAGAAAGUCUGUAAUCAUUUUAAGGGUA [A47G U57C]  0.69
19. GUUAACGGUCAUAGGCCAUGGAAACUAGGAGCACCAUUUCGCUGCCGGUGAAGAAAUGAACAAAGAAAAUCUGGGCCAGGCAGGCAUCAAUAGAAAUAGUCUUGCGCUCAACCAGAAAGUCUGUAAUCAUUUUAAGGGUA [A47G A91U]  0.76
20. GUUAACGGUCAUAGGCCAUGGAAACUAGGAGCACCAUUUCGCUGCCGGUGAAGAAAUGAACAAAGAAAAACUGGGCCAGGCAGGCAUCAAAAGAAAUAGUCUUGCGCUCAACCAGAAAGUCUGUAAUCAUUUUAAGGGUA [A47G U70A]  0.83
21. GUUAACGGUCAUAGGCCAUGGAAACUAGGAGCACCAUUUCGCUGCCCGUGAAGAAAUGAACAAAGAAAAUCUGGGCCAGGCAGGCAUCAAAAGAAAUAGUCUUGCGCUCAACCAGAAAGUCUGUAAUCAUCUUAAGGGUA [A47C U131C]  0.89
22. GUUAACGGUCAUAGGCCAUGGAAACUAGGAGCACCAUUUCGCUGCCGGUGAAGAAAUGAACAAAGAAAGUCUGGGCCAGGCAGGCAUCAAAAGAAAUAGUCUUGCGCUCAACCAGAAAGUCUGUAAUCAUUUUAAGGGUA [A47G A69G]  0.93
23. GUUAACGGUCAUAGGCCAUGGAAACUAGGAGCACCAUUUCGCUGCCGGCGAAGAAAUGAACAAAGAAAAUCUGGGCCAGGCAGGCAUCAAAAGAAAUAGUCUUGCGCUCAACCAGAAAGUCUGUAAUCAUUUUAAGGGUA [A47G U49C]  0.98
24. GUUAACGGUCAUAGGCCAUGGAAACUAGGAGCACCAUUUCGCUGCCGGUGAAGAAAUGAACAAAGAAAAUCUGGGCCAGGCAGGCAUCAAAAGAAAUAGUCUUGCGCUCAACCAGAAAGUCUGUAGUCAUUUUAAGGGUA [A47G A126G]  1
25. GUUAACGGUCAUAGGCCAUGGAAACUAGGAGCACCAUUUCGCUGCCGGUGAAGAAGUGAACAAAGAAAAUCUGGGCCAGGCAGGCAUCAAAAGAAAUAGUCUUGCGCUCAACCAGAAAGUCUGUAAUCAUUUUAAGGGUA [A47G A56G]  1.03
26. GUUAACGGUCAUAGGCCAUGGAAACUAGGAGCACCAUUUCGCUGCCGGUGAAGAAAUGAACAAAGAAAAUCUGGGCCAGGCAGGCCUCAAAAGAAAUAGUCUUGCGCUCAACCAGAAAGUCUGUAAUCAUUUUAAGGGUA [A47G A86C]  1.04
27. GUUAACGGUCAUAGGCCAUGGAAACUAGGAGCACCAUUUCGCUGCCGGAGAAGAAAUGAACAAAGAAAAUCUGGGCCAGGCAGGCAUCAAAAGAAAUAGUCUUGCGCUCAACCAGAAAGUCUGUAAUCAUUUUAAGGGUA [A47G U49A]  1.06
28. GUUAACGGUCAUAGGCCAUGGAAACUAGGAGCACCAUUUCGCUGCCGGUGAAGAAAUGAACAAAGAAAAUCUGGGCCAGGCAGGCAUCGAAAGAAAUAGUCUUGCGCUCAACCAGAAAGUCUGUAAUCAUUUUAAGGGUA [A47G A89G]  1.1
29. GUUAACGGUCAUAGGCCAUGGAAACUAGGAGCACCAUUUCGCUGCCGGUGAAGAAAUGAACAAAGAAAAUCUGGGCCAGGCAGGCAUCAAAAGCAAUAGUCUUGCGCUCAACCAGAAAGUCUGUAAUCAUUUUAAGGGUA [A47G A94C]  1.1
30. GUUAACGGUCAUAGGCCAUGGAAACUAGGAGCACCAUUUCGCUGCCGGUGAAGAAAUGAACAAAGAAAAUCUGGGCCAGGCAGGCAUCAAAUGAAAUAGUCUUGCGCUCAACCAGAAAGUCUGUAAUCAUUUUAAGGGUA [A47G A92U]  1.18
31. GUUAACGGUCAUAGGCCAUGGAAACUAGGAGCACCAUUUCGCUGCCGGUGAAGAAAUGAACUAAGAAAAUCUGGGCCAGGCAGGCAUCAAAAGAAAUAGUCUUGCGCUCAACCAGAAAGUCUGUAAUCAUUUUAAGGGUA [A47G A62U]  1.22
32. GUUAACGGUCAUAGGCCAUGGAAACUAGGAGCACCAUUUCGCUGCCGGUGAAGAAAUGAACAAAGAAAAUCUGGGCCAGGCAGGCAUCAAAAGAAAUAGUCUUGCGCUCAACCAGAAAGUCUGUAAUCAUUUUAAGGGUU [A47G A140U]  1.24
33. GUUAACGGUCAUAGGCCAUGGAAACUAGGAGCACCAUUUCGCUGCCGGUGAAGAAAUGAACAAAGAAAAUCUGGGCCAGGCAGGCGUCAAAAGAAAUAGUCUUGCGCUCAACCAGAAAGUCUGUAAUCAUUUUAAGGGUA [A47G A86G]  1.25
34. GUUAACGGUCAUAGGCCAUGGAAACUAGGAGCACCAUUUCGCUGCCGGUGAAGAAAUGAACAAUGAAAAUCUGGGCCAGGCAGGCAUCAAAAGAAAUAGUCUUGCGCUCAACCAGAAAGUCUGUAAUCAUUUUAAGGGUA [A47G A64U]  1.26
35. GUUAACGGUCAUAGGCCAUGGAAACUAGGAGCACCAUUUCGCUGCCGGUGAAGAAAUGAACAAAGAAAAUCUGGGCCAGGCAGGCAUCAAAAGAAAUAGUCUUGCGCUCAACCAGAGAGUCUGUAAUCAUUUUAAGGGUA [A47G A117G]  1.32
36. GUUAACGGUCAUAGGCCAUGGAAACUAGGAGCACCAUUUCGCUGCCGGUGAAGAAAUGAACAAAGAAAUUCUGGGCCAGGCAGGCAUCAAAAGAAAUAGUCUUGCGCUCAACCAGAAAGUCUGUAAUCAUUUUAAGGGUA [A47G A69U]  1.35
37. GUUAACGGUCAUAGGCCAUGGAAACUAGGAGCACCAUUUCGCUGCCGGUGAAGAAAUGAUCAAAGAAAAUCUGGGCCAGGCAGGCAUCAAAAGAAAUAGUCUUGCGCUCAACCAGAAAGUCUGUAAUCAUUUUAAGGGUA [A47G A60U]  1.4
38. GUUAACGGUCAUAGGCCAUGGAAACUAGGAGCACCAUUUCGCUGCCGGUGAAGAAAUGAACAAAGAUAAUCUGGGCCAGGCAGGCAUCAAAAGAAAUAGUCUUGCGCUCAACCAGAAAGUCUGUAAUCAUUUUAAGGGUA [A47G A67U]  1.48
39. GUUAACGGUCAUAGGCCAUGGAAACUAGGAGCACCAUUUCGCUGCCGGUGAAGAAAUGUACAAAGAAAAUCUGGGCCAGGCAGGCAUCAAAAGAAAUAGUCUUGCGCUCAACCAGAAAGUCUGUAAUCAUUUUAAGGGUA [A47G A59U]  1.56
40. GUUAACGGUCAUAGGCCAUGGAAACUAGGAGCACCAUUUCGCUGCCGGUGAAGAAAUGAACAAAGAAAAUCUGGGCCAGGCAGGCAUCACAAGAAAUAGUCUUGCGCUCAACCAGAAAGUCUGUAAUCAUUUUAAGGGUA [A47G A90C]  1.68
41. GUUAACGGUCAUAGGCCAUGGAAACUAGGAGCACCAUUUCGCUGCCGGUGAAGAAAUGAACAAAGAAAAUCUGGGCCAGGCAGGCAUCAAAAGAGAUAGUCUUGCGCUCAACCAGAAAGUCUGUAAUCAUUUUAAGGGUA [A47G A95G]  1.71
